Common to all, as to experiment: flow cytometry, GFP-positive transfected HEK-293T cells, fluorochrome-conjugated antibody at 10 ug/ml, Geo-mean relative to wild type;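 further: cells express mutant human BTLA ectodomain fused to murine CD28 transmembrane and cytoplasmic parts, stained 48 h after transfection for 1 h at 4 °C alongside a Live/Dead dye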
A general note: A flow cytometer gives signals particle by particle.

One test addresses T1, E45R (Mus musculus).
T1 construct: transmembrane and intracellular regions; also called BTLA E45R construct

A further test has as its target T2, K137E (Mus musculus).
T2 construct: transmembrane and intracellular regions; also called BTLA K137E construct

For a further test, the target named is T3, P53R (Mus musculus).
T3 construct: transmembrane and intracellular regions; also called BTLA P53R construct
T3 sequence (Q7Z6A9 31-151 P53R): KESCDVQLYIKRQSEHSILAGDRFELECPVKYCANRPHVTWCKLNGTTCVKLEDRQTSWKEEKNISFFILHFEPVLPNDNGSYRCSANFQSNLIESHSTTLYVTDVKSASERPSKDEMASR

A further test deals with T4, Q43R (Mus musculus).
T4 construct: transmembrane and intracellular regions; also called BTLA Q43R construct
T4 sequence (Q7Z6A9 31-151 Q43R): as the sequence (Q7Z6A9 31-151 P53R) above, with Q13R, R23P counted along it

The next test deals with T5, V80R (Mus musculus).
T5 construct: transmembrane and intracellular regions; also called BTLA V80R construct

For the next test, the target named is T6, H68E (Mus musculus).
T6 construct: transmembrane and intracellular regions; also called BTLA H68E construct

Another test addresses T7, Y132R (Mus musculus).
T7 construct: transmembrane and intracellular regions; also called BTLA Y132R construct

In a further test the target is T8, D52R (Mus musculus).
T8 construct: transmembrane and intracellular regions; also called BTLA D52R construct

The target of the next test is T9, Q86R (Mus musculus).
T9 construct: transmembrane and intracellular regions; also called BTLA Q86R construct

A further test addresses T10, T78R (Mus musculus).
T10 construct: transmembrane and intracellular regions; also called BTLA T78R construct

The target in another test is T11, L123R (Mus musculus).
T11 construct: transmembrane and intracellular regions; also called BTLA L123R construct

T7 sequence (Q7Z6A9 31-151 Y132R): as the sequence (Q7Z6A9 31-151 P53R) above, with R23P, Y102R counted along it
T10 sequence (Q7Z6A9 31-151 T78R): as the sequence (Q7Z6A9 31-151 P53R) above, with R23P, T48R counted along it
T1 sequence (Q7Z6A9 31-151 E45R): as the sequence (Q7Z6A9 31-151 P53R) above, with E15R, R23P counted along it
T2 sequence (Q7Z6A9 31-151 K137E): as the sequence (Q7Z6A9 31-151 P53R) above, with R23P, K107E counted along it
Protocol for D52R: (§1) Constructs encoding the human extracellular region of BTLA with the transmembrane and intracellular regions of murine CD28 were cloned into the bi-cistronic mammalian expression vector pGFP2-n2 (BioSignal Packard Ltd), which also encodes GFP. […] Mock and no-transfection controls were included with each experiment. Cells were harvested at 48 hours and stained with fluorochrome-conjugated anti-BTLA antibody at 10 μg/ml, alongside a Live/Dead marker, in PBS, 0.05% azide, 2% FCS (FACS buffer) for 1 h at 4° C. Cells were washed, pelleted and resuspended in 200 μl FACS buffer before being analysed on a BD FACSCanto flow cytometer. […] For each mutant the Geo-mean of anti-BTLA antibody binding to transfected cells was expressed as a percentage of binding to the wild-type receptor (FIG. 3b). A panel of anti-BTLA antibodies was assessed and any mutation that eliminated binding of all antibodies was excluded from the analysis, on the assumption that such mutations lead to drastic changes in protein folding or expression rather than indicating an antibody epitope.
Protocol for E45R: as §1
Protocol for H68E: as §1
Protocol for K137E: as §1
Protocol for L123R: as §1
Protocol for P53R: as §1
Protocol for Q43R: as §1
Protocol for Q86R: as §1
Protocol for T78R: as §1
Protocol for V80R: as §1
Protocol for Y132R: as §1

B1: 2.8.6 (antibody, V domains shown)
VH: QVQLKESGPGLVAPSQSLSITCTVSGFSLTTYGVHWVRQSPGKGLEWLGVMWPGGRTSYNPAPMSRLSISKDNSKSQVFLKMNSLQTDDTAMYYCVRGDYEYDYYAMDYWGQGTSVTVSS
VL: QIVLSQSPAILSASPGEKVTMTCRASSSVSYMHWYQQKPGSSPKPWIYATSNLASGVPARFSGSGSGTSYSLTISRMEAEDAATYYCHQWSSNPYTFGGGTKLEIK
notes: mouse IgG1k hybridoma antibody; also called clone 2.8.6
In the case of B1, the “binding as % of binding to wild-type BTLA” value (shortened to “binding as % of binding”) in the test with E45R is 96.3%; in the test with K137E it was 80.1%; with P53R, 55.6%; with Q43R it was 87.9%; in the test with V80R, 71.6%; with H68E, 126%. Besides, the “binding as % of binding” value with Y132R came out at 68.2%; in the test with D52R, 70.2%; in the test with Q86R it was 97.9%; with T78R, 95.3%; with L123R, 97.4%.

B2: 11.5.1 (antibody, V domains shown)
VH: EVQLQESGPSLVKPSQTLSLTCSVTGDSITSAYWNWIRKFPGNKLEYMGYISYSGSTYFNPSLKSRISITRNTSKNQYYLQLNSVTTEDTATYYCARSHYYGYYFDYWGHGTTLTVSS
VL: DIVLTQSPASLAVSLGQRATISCRASETIDSYGDSLMHWYQQKAGQPPKLLIYRASNLESGIPARFSGSGSRTDFTLTINPVEADDVATYYCQQTDEDPYTFGGGTKLEIK
notes: mouse IgG1k hybridoma antibody
For B2, the “binding as % of binding” value came out at 108% with E45R; 55.6% in the test with K137E; 117% with P53R; 55.2% with Q43R; 39.9% in the test with V80R; 81.3% with H68E. The “binding as % of binding” value with Y132R turned out to be 68.1%; with D52R, 129%; with Q86R, 132%; with T78R, 109%; in the test with L123R, 116%.

The values above are taken from patent publication US20230235058A1 (OXFORD UNIVERSITY INNOVATION, published 2023).
